Measured values from PMC10359466, “Identification of a small-molecule inhibitor that selectively blocks DNA-binding by Trypanosoma brucei replication protein A1” (Nature Communications, 2023).
Where two headings read alike, the source gives them in different places.

Experiments:
[1] = molecular target: ATRIP peptide (Homo sapiens) (UniProt Q8WXE1); conditions: cited from earlier work
[2] = molecular target: ATRIP peptide (Homo sapiens) (UniProt Q8WXE1); conditions: cited from earlier work; remark: listed apart in the source
[3] = molecular target: T1, TbRPA1 DBD-AB (Trypanosoma brucei) (UniProt Q384B5); assay: MST; conditions: 20 mM Tris pH 7.5, 10 mM NaCl, 10 mM MgCl2, 2 mM DTT, 10% glycerol, 0.1 mg/ml BSA, 15 min, room temperature; EMSA 2 nM probe (gel at 4 C), MST 10 nM probe
T1 sequence: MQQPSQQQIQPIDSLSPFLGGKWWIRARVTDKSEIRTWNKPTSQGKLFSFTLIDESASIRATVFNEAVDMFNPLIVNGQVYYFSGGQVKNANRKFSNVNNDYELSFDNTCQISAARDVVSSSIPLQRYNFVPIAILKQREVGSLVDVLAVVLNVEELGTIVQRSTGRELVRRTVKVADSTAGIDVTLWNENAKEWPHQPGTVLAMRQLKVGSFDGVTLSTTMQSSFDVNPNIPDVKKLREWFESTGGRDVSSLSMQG

[4] = molecular target: TbRPA complex: 6xHis-RPA1;TbRPA2;TbRPA3 (Trypanosoma brucei;Trypanosoma brucei;Trypanosoma brucei) (UniProt Q384B5); assay: MST; conditions: 20 mM Tris pH 7.5, 10 mM NaCl, 10 mM MgCl2, 2 mM DTT, 10% glycerol, 0.1 mg/ml BSA, 15 min, room temperature, EMSA 2 nM probe (gel at 4 C), MST 10 nM probe

Chain of ATRIP peptide (Homo sapiens) (Q8WXE1 whole entry): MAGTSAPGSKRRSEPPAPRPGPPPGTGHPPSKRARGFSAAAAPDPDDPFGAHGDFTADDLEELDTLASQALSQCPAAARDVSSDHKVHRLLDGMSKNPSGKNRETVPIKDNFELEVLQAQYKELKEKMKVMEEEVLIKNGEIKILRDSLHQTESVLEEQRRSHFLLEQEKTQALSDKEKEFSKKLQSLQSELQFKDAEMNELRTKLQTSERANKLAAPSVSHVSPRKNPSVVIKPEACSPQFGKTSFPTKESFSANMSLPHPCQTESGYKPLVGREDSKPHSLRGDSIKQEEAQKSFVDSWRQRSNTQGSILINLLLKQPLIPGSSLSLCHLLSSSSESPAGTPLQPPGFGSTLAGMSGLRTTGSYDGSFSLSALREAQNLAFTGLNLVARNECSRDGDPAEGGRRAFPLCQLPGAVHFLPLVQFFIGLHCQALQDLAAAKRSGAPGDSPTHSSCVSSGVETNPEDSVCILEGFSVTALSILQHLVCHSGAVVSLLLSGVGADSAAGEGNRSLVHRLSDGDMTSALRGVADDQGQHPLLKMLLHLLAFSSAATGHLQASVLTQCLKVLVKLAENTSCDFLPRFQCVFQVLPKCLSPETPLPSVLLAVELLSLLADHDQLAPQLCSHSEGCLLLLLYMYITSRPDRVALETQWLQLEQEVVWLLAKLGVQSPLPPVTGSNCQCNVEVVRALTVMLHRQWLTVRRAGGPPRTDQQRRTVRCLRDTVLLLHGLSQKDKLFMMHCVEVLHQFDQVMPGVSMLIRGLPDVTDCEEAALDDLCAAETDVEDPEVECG
Chain of RPA1 DBD-F DBD-F (P27694 1-120): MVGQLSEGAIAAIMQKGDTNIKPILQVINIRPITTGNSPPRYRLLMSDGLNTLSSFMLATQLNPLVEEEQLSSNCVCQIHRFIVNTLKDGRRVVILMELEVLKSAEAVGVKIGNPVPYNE
Chain of RPA1 DBD-AB DBD-AB (P27694 181-422): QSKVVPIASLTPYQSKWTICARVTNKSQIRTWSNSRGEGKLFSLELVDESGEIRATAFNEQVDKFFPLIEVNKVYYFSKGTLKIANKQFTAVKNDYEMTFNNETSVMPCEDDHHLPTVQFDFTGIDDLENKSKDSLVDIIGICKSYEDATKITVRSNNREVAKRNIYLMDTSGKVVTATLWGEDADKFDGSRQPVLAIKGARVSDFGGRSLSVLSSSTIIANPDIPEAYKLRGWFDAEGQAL

## RPA1 DBD-AB DBD-AB (from UniProt P27694)
[1]
  Kd: 12 µM

## RPA1 DBD-F DBD-F (from UniProt P27694)
[2]
  Kd: 7.4 µM

## TTTTTTTTTTTT [dT12]
[3]
  Kd: 60.5 nM

## TTTTTTTTTTTTTTTTTTTT [dT20]
[4]; 17.2 nM in peer review file
  Kd: 17 nM

## TTTTTTTTTTTTTTTTTTTTTTTTTTTTTTTT [dT32]
[4]
  Kd: 13.2 nM
[4]; second measurement, with S105T / length series
  Kd: 15.5 nM
